Measured values published in US12466878 (dated 2025).

Target: HLA-A*02:01 (human;)
Test: ELISA

Kd: 0.874 nM
B1: IGF2BP3-001 peptide KIQEILTQV (SEQ ID NO: 1) (peptide)
peptide: KIQEILTQV
